Data on 93 variants can be found in IntAct's records for PubMed 29039417.

B1: Protein PTHB1 (Homo sapiens), Q3SYG4 (parent)
chain: MSLFKARDWWSTILGDKEEFDQGCLCLANVDNSGNGQDKIIVGSFMGYLRIFSPHPAKTGDGAQAEDLLLEVDLRDPVLQVEVGKFVSGTEMLHLAVLHSRKLCVYSVSGTLGNVEHGNQCQMKLMYEHNLQRTACNMTYGSFGGVKGRDLICIQSMDGMLMVFEQESYAFGRFLPGFLLPGPLAYSSRTDSFLTVSSCQQVESYKYQVLAFATDADKRQETEQQKLGSGKRLVVDWTLNIGEQALDICIVSFNQSASSVFVLGERNFFCLKDNGQIRFMKKLDWSPSCFLPYCSVSEGTINTLIGNHNNMLHIYQDVTLKWATQLPHIPVAVRVGCLHDLKGVIVTLSDDGHLQCSYLGTDPSLFQAPNVQSRELNYDELDVEMKELQKIIKDVNKSQGVWPMTEREDDLNVSVVVSPNFDSVSQATDVEVGTDLVPSVTVKVTLQNRVILQKAKLSVYVQPPLELTCDQFTFEFMTPDLTRTVSFSVYLKRSYTPSELEGNAVVSYSRPTDRNPDGIPRVIQCKFRLPLKLICLPGQPSKTASHKITIDTNKSPVSLLSLFPGFASQSDDDQVNVMGFHFLGGARITVLASKTSQRYRIQSEQFEDLWLITNELILRLQEYFEKQGVKDFACSFSGSIPLQEYFELIDHHFELRINGEKLEELLSERAVQFRAIQRRLLARFKDKTPAPLQHLDTLLDGTYKQVIALADAVEENQGNLFQSFTRLKSATHLVILLIALWQKLSADQVAILEAAFLPLQEDTQELGWEETVDAAISHLLKTCLSKSSKEQALNLNSQLNIPKDTSQLKKHITLLCDRLSKGGRLCLSTDAAAPQTMVMPGGCTTIPESDLEERSVEQDSTELFTNHRHLTAETPRPEVSPLQGVSE
partner: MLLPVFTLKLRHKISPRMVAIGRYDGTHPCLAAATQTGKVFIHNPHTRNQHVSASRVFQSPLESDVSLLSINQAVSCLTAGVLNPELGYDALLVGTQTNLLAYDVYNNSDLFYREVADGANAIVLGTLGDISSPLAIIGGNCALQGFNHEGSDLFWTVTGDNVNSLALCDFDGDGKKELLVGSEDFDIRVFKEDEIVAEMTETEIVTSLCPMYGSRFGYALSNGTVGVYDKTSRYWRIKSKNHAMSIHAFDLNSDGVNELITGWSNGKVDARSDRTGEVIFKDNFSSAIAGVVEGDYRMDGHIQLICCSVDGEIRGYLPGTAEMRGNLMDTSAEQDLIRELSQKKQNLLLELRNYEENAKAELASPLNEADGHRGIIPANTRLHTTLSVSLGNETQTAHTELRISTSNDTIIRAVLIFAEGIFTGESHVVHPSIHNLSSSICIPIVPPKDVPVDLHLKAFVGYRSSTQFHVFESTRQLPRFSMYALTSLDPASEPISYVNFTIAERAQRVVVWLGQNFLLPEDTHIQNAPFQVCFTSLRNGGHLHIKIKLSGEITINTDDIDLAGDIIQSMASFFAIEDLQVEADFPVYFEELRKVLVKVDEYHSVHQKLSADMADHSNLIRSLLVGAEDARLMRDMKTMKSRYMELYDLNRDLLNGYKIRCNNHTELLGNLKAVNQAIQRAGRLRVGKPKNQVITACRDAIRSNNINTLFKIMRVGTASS

Variants of B1 are the subject of this test. To be noted: with bbs2_human BBS2, Q9BXC9.
As to R449K, the “effect of a mutation on the interaction” value is “with no effect”. The result for R449A reads “with no effect”; that for R449E, “with no effect”. With L467E, the “effect of a mutation on the interaction” value was “with no effect”.

As to L467K, the “effect of a mutation on the interaction” value is “with no effect”. As to L467A, the “effect of a mutation on the interaction” value is “with no effect”.

For F476A, the “effect of a mutation on the interaction” value is on record as “with no effect”. With F476E, the “effect of a mutation on the interaction” value is recorded as “with no effect”. With F476K, the “effect of a mutation on the interaction” value was “with no effect”. With Q462A, the “effect of a mutation on the interaction” value is on record as “with no effect”.

As for Q462K, the “effect of a mutation on the interaction” value is recorded as “with no effect”. The result for Q462Y reads “disrupting interaction strength”.

Turning to Q462T, the “effect of a mutation on the interaction” value is reported as “disrupting interaction strength”. The result for Q462E reads “with no effect”; that for E466A, “with no effect”; that for E466K, “with no effect”. On to K456E, for which the “effect of a mutation on the interaction” value is “with no effect”. Regarding K456A, the “effect of a mutation on the interaction” value is recorded as “with no effect”. As to M477E, the “effect of a mutation on the interaction” value was “with no effect”. With M477K, the “effect of a mutation on the interaction” value is given as “with no effect”. The result for M477A reads “with no effect”. In the case of Q453E, the “effect of a mutation on the interaction” value is on record as “with no effect”.

Q453K: the “effect of a mutation on the interaction” value was “with no effect”. Regarding Q453A, the “effect of a mutation on the interaction” value is “with no effect”.

As for Y460E, the “effect of a mutation on the interaction” value is reported as “with no effect”. The result for Y460K reads “with no effect”; that for Y460A, “with no effect”; that for C469K, “with no effect”. For C469A, the “effect of a mutation on the interaction” value was “with no effect”. Regarding C469E, the “effect of a mutation on the interaction” value is recorded as “with no effect”. With L452A, the “effect of a mutation on the interaction” value is “with no effect”. For the variant L452K, the “effect of a mutation on the interaction” value is “with no effect”. The result for L452E reads “with no effect”; that for N448E, “with no effect”; that for N448A, “with no effect”. For N448K, the “effect of a mutation on the interaction” value is “with no effect”.

As to I451K, the “effect of a mutation on the interaction” value was “with no effect”. In the case of I451E, the “effect of a mutation on the interaction” value was “with no effect”. Regarding I451A, the “effect of a mutation on the interaction” value is “with no effect”. The result for V450E reads “with no effect”. Take V450A: the “effect of a mutation on the interaction” value is on record as “with no effect”.

For V450K, the “effect of a mutation on the interaction” value was “with no effect”. The result for D470A reads “with no effect”; that for D470E, “with no effect”; that for D470K, “with no effect”. For the variant D470N, the “effect of a mutation on the interaction” value is recorded as “disrupting interaction strength”. The result for L465E reads “with no effect”. The result for L465A reads “with no effect”. As for L465K, the “effect of a mutation on the interaction” value was “with no effect”.

With Q447A, the “effect of a mutation on the interaction” value is “with no effect”. The result for Q447E reads “with no effect”; that for Q447K, “with no effect”; that for L457E, “with no effect”.

As for L457K, the “effect of a mutation on the interaction” value is recorded as “with no effect”.

As for L457A, the “effect of a mutation on the interaction” value is recorded as “with no effect”. The result for T468K reads “with no effect”; that for T468A, “with no effect”; that for T468E, “with no effect”. The result for F474A reads “with no effect”; that for F474E, “with no effect”. The result for F474K reads “with no effect”; that for T473E, “with no effect”. For the variant T473K, the “effect of a mutation on the interaction” value is “with no effect”. The result for T473A reads “with no effect”.

As to V459A, the “effect of a mutation on the interaction” value was “with no effect”. The result for V459E reads “with no effect”. The result for V459K reads “with no effect”; that for P464K, “with no effect”. The result for P464E reads “with no effect”; that for P464A, “with no effect”; that for T478E, “with no effect”. As to T478A, the “effect of a mutation on the interaction” value is given as “with no effect”. The result for A455E reads “with no effect”; that for A455K, “with no effect”. With P463A, the “effect of a mutation on the interaction” value is “with no effect”. The result for P463E reads “with no effect”. P463K: the “effect of a mutation on the interaction” value is “with no effect”.

Turning to K454E, the “effect of a mutation on the interaction” value is listed as “with no effect”.

With K454A, the “effect of a mutation on the interaction” value is “with no effect”.

Take V461A: the “effect of a mutation on the interaction” value is listed as “with no effect”. With V461K, the “effect of a mutation on the interaction” value is “with no effect”. Turning to V461E, the “effect of a mutation on the interaction” value was “with no effect”. Turning to E475K, the “effect of a mutation on the interaction” value was “with no effect”. Take E475A: the “effect of a mutation on the interaction” value is “with no effect”. Q471A: the “effect of a mutation on the interaction” value is “with no effect”. The result for Q471E reads “with no effect”; that for Q471K, “with no effect”; that for F472K, “with no effect”. The result for F472E reads “with no effect”; that for F472A, “with no effect”.

With S458K, the “effect of a mutation on the interaction” value is reported as “with no effect”.

As to S458E, the “effect of a mutation on the interaction” value was “with no effect”. The result for S458A reads “with no effect”.
